Data: article PMC2172667 (The Journal of Cell Biology, 2003)

Biological target: the molecule itself
Experiment: AUC + SEC

B1: his-EPLIN-α (natural protein)
chain: MENCLGESRHEVEKSEISENTDASGKIEKYNVPLNRLKMMFEKGEPTQTKILRAQSRSASGRKISENSYSLDDLEIGPGQLSSSTFDSEKNESRRNLELPRLSETSIKDRMAKYQAAVSKQSSSTNYTNELKASGGEIKIHKMEQKENVPPGPEVCITHQEGEKISANENSLAVRSTPAEDDSRDSQVKSEVQQPVHPKPLSPDSRASSLSESSPPKAMKKFQAPARETCVECQKTVYPMERLLANQQVFHISCFRCSYCNNKLSLGTYASLHGRIYCKPHFNQLFKSKGNYDEGFGHRPHKDLWASKNENEEILERPAQLANARETPHSPGVEDAPIAKVGVLAASMEAKASSQQEKEDKPAETKKLRIAWPPPTELGSSGSALEEGIKMSKPKWPPEDEISKPEVPEDVDLDLKKLRRSSSLKERSRPFTVAASFQSTSVKSPKTVSPPIRKGWSMSEQSEESVGGRVAERKQVENAKASKKNGNVGKTTWQNKESKGETGKRSKEGHSLEMENENLVENGADSDEDDNSFLKQQSPQEPKSLNWSSFVDNTFAEEFTTQNQKSQDVELWEGEVVKELSVEEQIKRNRYYDEDEDEE
  stoichiometry N: ~8 polypeptides
